molecular target: human IRAK1 fused to the N-terminal Nanoluc fragment N67 (human) (UniProt P51617); experiment: split reporter (BiFC, NanoBiT)

“SINV capsid protein fused to the C-terminal Nanoluc fragment C67 (from UniProt P03316) (natural protein)” and “CHIKV capsid protein fused to the C-terminal Nanoluc fragment C67 (from UniProt Q8JUX5) (natural protein)” cannot be ordered by fold Nanoluc activity over control reactions: 12 fold for the first, greater than 10 fold for the second.

For “RRV capsid protein fused to the C-terminal Nanoluc fragment C67 (natural protein)”, the fold Nanoluc activity over control reactions was greater than 10 fold.
